Measurements: PMC11952319

How the values were obtained:
Experiment in all cases: BLI
[1] = target: M15 single reverted mutant S32I (light chain residue 32 reverted to the germline residue) (human)
[2] = target: M15 triple mutant with all three light chain mutations (S32I, G51A, T57I) reverted to germline (human)
[3] = target: M15 single reverted mutant T57I (light chain residue 57 reverted to the germline residue) (human)
[4] = target: M15 single reverted mutant G51A (light chain residue 51 reverted to the germline residue) (human)

Q: With “SARS-CoV-2 WA1/2020 S2 protein (stabilized prefusion SARS-CoV-2 spike S2 trimer) (from UniProt P0DTC2) (domain or fragment)” as the substance, how does the fold decrease in binding affinity compared to M15 [1] read?
A: 1.45 fold

Q: And the fold decrease in binding affinity compared to M15 [2]?
A: 12 fold

Q: What about the fold decrease in binding affinity compared to M15 [3] of the same substance?
A: 1.02 fold

Q: And the fold decrease in binding affinity compared to M15 [4]?
A: 1.88 fold
